Key:
[1] = biological target: T1, human ROR1 expressed on the surface of cancer cells (human, UniProt Q01973 30-937); experiment: cell-based or functional assay
[2] = biological target: T2, His-tagged soluble human ROR1 (shROR1-His) (human, UniProt Q01973 30-406); experiment: SPR (Biacore), shROR1-His captured on anti-PentaHis surface, diabody 6.25-100 nM as analyte
T2 construct: also called ROR1 protein; immobilized ROR1; not shown: His-Tag
Procedure: The binding affinity of DART-1, DART-A, DART-B, and DART-C was investigated using Biacore analysis in which each diabody construct was passed over immobilized ROR1. Briefly, shROR1-His was captured on immobilized anti-PentaHis surface and was incubated with DART-1, DART-A, DART-B or DART-C at 6.25-100 nM, and the kinetics of binding was determined via Biacore analysis.

[3] = biological target: T2, His-tagged soluble human ROR1 …; experiment: sandwich ELISA: plate coated with shROR1-His, serial dilutions of diabody, bound diabody detected with biotinylated CD3 and streptavidin-HRP; abs @450nm
Procedure: (§1) The ability of the bispecific ROR1×CD3 two and three chain diabodies DART-1 and DART-A to bind both ROR1 and CD3 was examined by a sandwich ELISA. Briefly, microtiter plates were coated with shROR1-His, the plates were washed and incubated with three-fold serial dilutions of DART-1 or DART-A. The amount of diabody binding to the immobilized ROR1 was assessed using a biotinylated CD3 detected with Streptavidin-HRP. All samples were analyzed on a plate reader and binding curves generated. […] The cells were washed twice incubated with biotin-conjugated mouse anti-EK-coil antibody that recognizes the E-coil/K-coil (EK) heterodimerization region (100 μL of 1 μg/mL mixed with 1:500 diluted streptavidin-phycoerythrin) for 45 min. The cells were then washed and resuspended with FACS buffer, and analyzed with a BD FCS Canto II flow cytometer using FlowJo v10 software.

[4] = biological target: T2, His-tagged soluble human ROR1 …; experiment: sandwich ELISA: plate coated with shROR1-His, serial dilutions of diabody, bound diabody detected with biotinylated CD3 and streptavidin-HRP; y axis 'Mean Value'
Procedure: as §1

[5] = biological target: T2, His-tagged soluble human ROR1 …; experiment: SPR (Biacore)
[6] = biological target: T1, human ROR1 expressed on the surface of …; experiment: cell-based or functional assay; remark: listed apart in the source
[7] = biological target: T2, His-tagged soluble human ROR1 …; experiment: SPR (Biacore), diabody captured via anti-E/K-coil, shROR1-His as analyte
Procedure: The binding kinetics of DART-1 to DART-6, DART-10 to DART-17, DART-20 to DART-33 was investigated using Biacore analysis in which ROR1 protein was passed over immobilized diabodies. Briefly, each diabody construct was captured on immobilized anti-E/K-coil surface and was incubated with shROR1-His at 25 and 100 nM, and the kinetics of binding were determined via Biacore analysis.

T2 sequence (Q01973 30-406): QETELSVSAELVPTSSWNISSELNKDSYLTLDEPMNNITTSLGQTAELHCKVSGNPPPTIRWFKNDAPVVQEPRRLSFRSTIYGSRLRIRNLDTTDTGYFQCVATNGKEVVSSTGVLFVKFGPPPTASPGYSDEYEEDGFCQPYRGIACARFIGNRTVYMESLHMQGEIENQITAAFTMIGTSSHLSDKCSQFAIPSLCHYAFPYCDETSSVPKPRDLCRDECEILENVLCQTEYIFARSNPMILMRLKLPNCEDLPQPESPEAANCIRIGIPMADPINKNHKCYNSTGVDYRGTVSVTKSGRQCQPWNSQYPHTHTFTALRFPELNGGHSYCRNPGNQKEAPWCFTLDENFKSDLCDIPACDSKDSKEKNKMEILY
T1 sequence (Q01973 30-937): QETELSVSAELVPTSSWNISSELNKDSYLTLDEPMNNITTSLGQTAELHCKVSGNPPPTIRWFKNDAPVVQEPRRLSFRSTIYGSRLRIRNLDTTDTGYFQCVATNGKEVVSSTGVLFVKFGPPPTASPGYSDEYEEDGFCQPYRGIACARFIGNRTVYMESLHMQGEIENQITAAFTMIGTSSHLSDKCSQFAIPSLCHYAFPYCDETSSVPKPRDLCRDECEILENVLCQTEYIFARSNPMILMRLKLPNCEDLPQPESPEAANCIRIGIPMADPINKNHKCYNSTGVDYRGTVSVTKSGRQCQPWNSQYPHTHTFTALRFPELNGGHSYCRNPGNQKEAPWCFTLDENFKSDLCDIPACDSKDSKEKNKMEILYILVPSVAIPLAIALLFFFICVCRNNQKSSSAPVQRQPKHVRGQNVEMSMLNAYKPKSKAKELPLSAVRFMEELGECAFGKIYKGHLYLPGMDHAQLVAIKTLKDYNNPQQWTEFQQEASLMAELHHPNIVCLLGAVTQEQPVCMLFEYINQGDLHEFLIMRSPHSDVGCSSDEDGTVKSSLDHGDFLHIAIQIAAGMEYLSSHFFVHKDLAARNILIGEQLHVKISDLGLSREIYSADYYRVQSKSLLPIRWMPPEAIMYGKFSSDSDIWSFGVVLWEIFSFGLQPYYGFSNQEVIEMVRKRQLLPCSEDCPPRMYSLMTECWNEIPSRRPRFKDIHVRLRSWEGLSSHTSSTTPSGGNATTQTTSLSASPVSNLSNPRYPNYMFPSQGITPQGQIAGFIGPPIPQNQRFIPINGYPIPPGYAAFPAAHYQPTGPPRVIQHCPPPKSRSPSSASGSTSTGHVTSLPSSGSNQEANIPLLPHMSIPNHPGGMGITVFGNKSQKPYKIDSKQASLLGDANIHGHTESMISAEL

| Binder | Kd [2] [nM] | EC50 (read off the curve) [3] [nM] | EC50 (read off the curve) [4] [nM] | Kd [7] [nM] | other results |
| --- | --- | --- | --- | --- | --- |
| DART-A (bispecific antibody, IgG1, Three chain Fc Region-containing diabody (knob/hole IgG1 CH2-CH3 with L234A/L235A); C-terminal lysine of the Fc chains may be removed post-translationally; also called ROR1×CD3 bispecific three chain diabody with parental anti-ROR1-VL and anti-ROR1-VH) chain 1: QLVLTQSPSASASLGSSVKLTCTLSSGHKTDTIDWYQQQPGKAPRYLMKLEGSGSYNKGSGVPDRFGSGSSSGADRYLTISSLQSEDEADYYCGTDYPGNYLFGGGTQLTVLGGGGSGGGGEVQLVESGGGLVQPGGSLRLSCAASGFTFSTYAMNWVRQAPGKGLEWVGRIRSKYNNYATYYADSVKGRFTISRDDSKNSLYLQMNSLKTEDTAVYYCVRHGNFGNSYVSWFAYWGQGTLVTVSSASTKGEVAACEKEVAALEKEVAALEKEVAALEKGGGDKTHTCPPCPAPEAAGGPSVFLFPPKPKDTLMISRTPEVTCVVVDVSHEDPEVKFNWYVDGVEVHNAKTKPREEQYNSTYRVVSVLTVLHQDWLNGKEYKCKVSNKALPAPIEKTISKAKGQPREPQVYTLPPSREEMTKNQVSLWCLVKGFYPSDIAVEWESNGQPENNYKTTPPVLDSDGSFFLYSKLTVDKSRWQQGNVFSCSVMHEALHNHYTQKSLSLSPGK chain 2: QAVVTQEPSLTVSPGGTVTLTCRSSTGAVTTSNYANWVQQKPGQAPRGLIGGTNKRAPWTPARFSGSLLGGKAALTITGAQAEDEADYYCALWYSNLWVFGGGTKLTVLGGGGSGGGGQEQLVESGGGLVQPGGSLRLSCAASGFTFSDYYMSWVRQAPGKGLEWVATIYPSSGKTYYADSVKGRFTISSDNAKNSLYLQMNSLRAEDTAVYYCARDSYADDAALFDIWGQGTTVTVSSASTKGKVAACKEKVAALKEKVAALKEKVAALKE chain 3: not shown | 0.69 | ~2 | ~1 | – | EC50 nM, redirected cell killing of Calu-3 cells by pan T-cells (LDH release) [1]: 0.196 nM; EC50 nM, redirected cell killing of JIMT-1 cells by pan T-cells (LDH release) [1]: 0.161 nM; EC50 nM, redirected cell killing of NCI-H1975 cells by pan T-cells (LDH release) [1]: 0.266 nM |
| DART-C (bispecific antibody, Three chain Fc Region-containing ROR1×CD3 diabody) chain 1: QLVLTQSPSASASLGSSVKLTCTLSSGHKTDTIDWYQQQPGKAPRYLMKLEGSGSYNKGSGVPDRFSGSSSGADWYLTISSLQSEDEADYYCGTDYPGNYLFGGGTQLTVLGGGGSGGGGEVQLVESGGGLVQPGGSLRLSCAASGFTFSTYAMNWVRQAPGKGLEWVGRIRSKYNNYATYYADSVKGRFTISRDDSKNSLYLQMNSLKTEDTAVYYCVRHGNFGNSYVSWFAYWGQGTLVTVSSASTKGEVAACEKEVAALEKEVAALEKEVAALEKGGGDKTHTCPPCPAPEAAGGPSVFLFPPKPKDTLMISRTPEVTCVVVDVSHEDPEVKFNWYVDGVEVHNAKTKPREEQYNSTYRVVSVLTVLHQDWLNGKEYKCKVSNKALPAPIEKTISKAKGQPREPQVYTLPPSREEMTKNQVSLWCLVKGFYPSDIAVEWESNGQPENNYKTTPPVLDSDGSFFLYSKLTVDKSRWQQGNVFSCSVMHEALHNHYTQKSLSLSPGK chain 2: QAVVTQEPSLTVSPGGTVTLTCRSSTGAVTTSNYANWVQQKPGQAPRGLIGGTNKRAPWTPARFSGSLLGGKAALTITGAQAEDEADYYCALWYSNLWVFGGGTKLTVLGGGGSGGGGQEQLVESGGGLVQPGGSLRLSCAASGFTFSDYYMSWVRQAPGKGLEWVATIYPSSGKTYYADSVKGRLTISSDNAKDSLYLQMNSLRAEDTAVYYCTRDSYADDAALFDIWGQGTTVTVSSASTKGKVAACKEKVAALKEKVAALKEKVAALKE chain 3: not shown | 0.25 | – | ~0.8 | – | fold enhancement of binding relative to DART-A [5]: > 2 fold |
| DART-B (bispecific antibody, Three chain Fc Region-containing ROR1×CD3 diabody; VH: parental) chain 1: QLVLTQSPSASASLGSSVKLTCTLSSGHKTDTIDWYQQQPGKAPRYLMKLEGSGSYNKGSGVPDRFSGSSSGADRYLTISSLQSEDEADYYCGTDYPGNYLFGGGTQLTVLGGGGSGGGGEVQLVESGGGLVQPGGSLRLSCAASGFTFSTYAMNWVRQAPGKGLEWVGRIRSKYNNYATYYADSVKGRFTISRDDSKNSLYLQMNSLKTEDTAVYYCVRHGNFGNSYVSWFAYWGQGTLVTVSSASTKGEVAACEKEVAALEKEVAALEKEVAALEKGGGDKTHTCPPCPAPEAAGGPSVFLFPPKPKDTLMISRTPEVTCVVVDVSHEDPEVKFNWYVDGVEVHNAKTKPREEQYNSTYRVVSVLTVLHQDWLNGKEYKCKVSNKALPAPIEKTISKAKGQPREPQVYTLPPSREEMTKNQVSLWCLVKGFYPSDIAVEWESNGQPENNYKTTPPVLDSDGSFFLYSKLTVDKSRWQQGNVFSCSVMHEALHNHYTQKSLSLSPGK chain 2: QAVVTQEPSLTVSPGGTVTLTCRSSTGAVTTSNYANWVQQKPGQAPRGLIGGTNKRAPWTPARFSGSLLGGKAALTITGAQAEDEADYYCALWYSNLWVFGGGTKLTVLGGGGSGGGGQEQLVESGGGLVQPGGSLRLSCAASGFTFSDYYMSWVRQAPGKGLEWVATIYPSSGKTYYADSVKGRFTISSDNAKNSLYLQMNSLRAEDTAVYYCARDSYADDAALFDIWGQGTTVTVSSASTKGKVAACKEKVAALKEKVAALKEKVAALKE chain 3: not shown | 0.65 | – | – | – | – |
| DART-D (bispecific antibody, Three chain Fc Region-containing ROR1×CD3 diabody) chain 1: QLVLTQSPSASASLGSSVKLTCTLSSGHKTDTIDWYQQQPGKAPRYLMKLEGSGSYNKGSGVPDRFSGSSSGADWYLTISSLQSEDEADYYCGTDYPGNYLFGGGTQLTVLGGGGSGGGGEVQLVESGGGLVQPGGSLRLSCAASGFTFSTYAMNWVRQAPGKGLEWVGRIRSKYNNYATYYADSVKGRFTISRDDSKNSLYLQMNSLKTEDTAVYYCVRHGNFGNSYVSWFAYWGQGTLVTVSSASTKGEVAACEKEVAALEKEVAALEKEVAALEKGGGDKTHTCPPCPAPEAAGGPSVFLFPPKPKDTLMISRTPEVTCVVVDVSHEDPEVKFNWYVDGVEVHNAKTKPREEQYNSTYRVVSVLTVLHQDWLNGKEYKCKVSNKALPAPIEKTISKAKGQPREPQVYTLPPSREEMTKNQVSLWCLVKGFYPSDIAVEWESNGQPENNYKTTPPVLDSDGSFFLYSKLTVDKSRWQQGNVFSCSVMHEALHNHYTQKSLSLSPGK chain 2: QAVVTQEPSLTVSPGGTVTLTCRSSTGAVTTSNYANWVQQKPGQAPRGLIGGTNKRAPWTPARFSGSLLGGKAALTITGAQAEDEADYYCALWYSNLWVFGGGTKLTVLGGGGSGGGGQEQLVESGGGLVQPGGSLRLSCAASGFTFSDYYMSWIRQAPGKGLEWVATIYPSSGKTYYADSAKGRLTISSDNAKDSLYLQMNSLRAEDTAVYYCTRDSYADDAALFDIWGQGTTVTVSSASTKGKVAACKEKVAALKEKVAALKEKVAALKE chain 3: not shown | – | – | ~1 | – | – |
| DART-1 (bispecific antibody, VL: parental; VH: parental; also called ROR1×CD3 bispecific two chain diabody with parental anti-ROR1-VL and anti-ROR1-VH) chain 1: QLVLTQSPSASASLGSSVKLTCTLSSGHKTDTIDWYQQQPGKAPRYLMKLEGSGSYNKGSGVPDRFGSGSSSGADRYLTISSLQSEDEADYYCGTDYPGNYLFGGGTQLTVLGGGGSGGGGEVQLVESGGGLVQPGGSLRLSCAASGFTFSTYAMNWVRQAPGKGLEWVGRIRSKYNNYATYYADSVKGRFTISRDDSKNSLYLQMNSLKTEDTAVYYCVRHGNFGNSYVSWFAYWGQGTLVTVSSGGCGGGKVAALKEKVAALKEKVAALKEKVAALKE chain 2: QAVVTQEPSLTVSPGGTVTLTCRSSTGAVTTSNYANWVQQKPGQAPRGLIGGTNKRAPWTPARFSGSLLGGKAALTITGAQAEDEADYYCALWYSNLWVFGGGTKLTVLGGGGSGGGGQEQLVESGGGLVQPGGSLRLSCAASGFTFSDYYMSWVRQAPGKGLEWVATIYPSSGKTYYADSVKGRFTISSDNAKNSLYLQMNSLRAEDTAVYYCARDSYADDAALFDIWGQGTTVTVSSGGCGGGEVAALEKEVAALEKEVAALEKEVAALEK | – | ~2 | – | 4 | MR(%) (maximum response), redirected cell killing of HBL-2 cells (LDH release) [6]: 28.5%; MR(%) (maximum response), redirected cell killing of JIMT-1 cells (LDH release) [6]: 42.4%; MR(%) (maximum response), redirected cell killing of Jeko-1 cells (LDH release) [6]: 37.4% |
| DART-32 (bispecific antibody, ROR1×CD3 two chain diabody) chain 1: QLVLTQSPSASASLGSSVKLTCTLSSGHKTDTIDWYQQQPGKAPRYLMKLEGSGSYNKGSGVPDRFSGSSSGADWYLTISSLQSEDEADYYCGTDYPGNYLFGGGTQLTVLGGGGSGGGGEVQLVESGGGLVQPGGSLRLSCAASGFTFSTYAMNWVRQAPGKGLEWVGRIRSKYNNYATYYADSVKGRFTISRDDSKNSLYLQMNSLKTEDTAVYYCVRHGNFGNSYVSWFAYWGQGTLVTVSSGGCGGGKVAALKEKVAALKEKVAALKEKVAALKE chain 2: QAVVTQEPSLTVSPGGTVTLTCRSSTGAVTTSNYANWVQQKPGQAPRGLIGGTNKRAPWTPARFSGSLLGGKAALTITGAQAEDEADYYCALWYSNLWVFGGGTKLTVLGGGGSGGGGQEQLVESGGGLVQPGGSLRLSCAASGFTFSDYYMSWVRQAPGKGLEWVATIYPSSGKTYYADSVKGRLTISSDNAKDSLYLQMNSLRAEDTAVYYCTRDSYADDAALFDIWGQGTTVTVSSGGCGGGEVAALEKEVAALEKEVAALEKEVAALEK | – | – | – | 1.1 | fold enhancement of binding relative to DART-1 [5]: > 2 fold |

— patent US20170233472A1 (MacroGenics, published 2017)
